Data on 1 substance can be found in patent US20260042834A1, “ANTI-CORTICOTROPIN-RELEASING HORMONE ANTIBODIES AND POLYCYSTIC OVARY SYNDROME” (HBM ALPHA THERAPEUTICS, INC., priority 2022, published 2026).

In assay [1] the target is biotinylated CRH (human and mouse). The experiment in a line: competitive ELISA, coated 1st mAb; competitor PR005660. For orientation: In an ELISA, binding on a coated surface is turned into a signal by an enzyme label.
For assay [2] the target is unchanged. The assay is described as follows: Octet in-tandem, row = 1st mAb; competitor (2nd mAb) PR005660. (Biolayer interferometry detects binding as a change in optical thickness at a sensor tip.)
Assay [3] has the same target. The assay is described as follows: competitive ELISA, coated 1st mAb; competitor PR301777.
The target is the same in assay [4]. The experiment in a line: Octet in-tandem, row = 1st mAb; competitor (2nd mAb) PR302309-8.
For assay [5] the target is unchanged. The assay is described as follows: Octet in-tandem, row = 1st mAb; competitor (2nd mAb) PR302334.
Assay [6] shares this target. The experiment in a line: competitive ELISA, coated 1st mAb; competitor PR302050.
Assay [7] shares this target. The assay is described as follows: Octet in-tandem, row = 1st mAb; competitor (2nd mAb) PR303394.
For assay [8] the target is unchanged. The experiment in a line: competitive ELISA, coated 1st mAb; competitor hIgG1.
The target is the same in assay [9]. The assay is described as follows: competitive ELISA, coated 1st mAb; competitor PR302069.
For assay [10] the target is unchanged. The assay is described as follows: Octet in-tandem, row = 1st mAb; competitor (2nd mAb) PR302341-34.
Assay [11] has the same target. The assay is described as follows: Octet in-tandem, row = 1st mAb; competitor (2nd mAb) PR301777.
Assay [12] has the same target. The experiment in a line: Octet in-tandem, row = 1st mAb; competitor (2nd mAb) PR006669.
Assay [13] shares this target. The assay is described as follows: competitive ELISA, coated 1st mAb; competitor PR302064.
Assay [14] shares this target. The experiment in a line: competitive ELISA, coated 1st mAb; competitor PR004290.
For assay [15] the target is unchanged. The experiment in a line: competitive ELISA, coated 1st mAb; competitor PR006152.
For assay [16] the target is unchanged. The experiment in a line: competitive ELISA, coated 1st mAb; competitor PR006148.
For assay [17] the target is unchanged. The experiment in a line: competitive ELISA, coated 1st mAb; competitor PR302055.

Sequence of biotinylated CRH (human and mouse) (peptide, as listed by the source): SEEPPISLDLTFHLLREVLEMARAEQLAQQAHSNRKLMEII

A word on the % Inhibition: it is how much of the control response was suppressed. Lower therefore signals a weak effect. In the case of hIgG1 (antibody), the % Inhibition in assay [1] was 0%; in assay [2], 12%; in assay [3], 0%; in assay [4] it was 15%; in assay [5], 8%; in [6], 0%. The % Inhibition is 10% in [7]; 0% in [8]; 0% in assay [9]; 12% in assay [10]; 9% in [11]; 9% in [12]. Moreover, the % Inhibition in [13], in assay [14], in assay [15], in [16] and in assay [17] was 0% each time.
